From PMC10399903

Assays:
Experiment in all cases: phage adsorption assay; 10^6 pfu of χ phage added to 10 ml LB cultures of motile cells at OD600 2.0, shaken ten minutes at 37°C; cells pelleted at 15,000 x g and phage left in the supernatant titered by plaque assay; adsorption = (1 - pfu supernatant with cells/pfu control without cells) * 100%
[1] = target: wild type ser. Typhimurium FliC (strain FliC1) (Salmonella enterica serotype Typhimurium 14028s) (UniProt P06179)
[2] = target: ser. Enteritidis FliC with both D2 domains and D3 replaced by their ser. Typhimurium equivalents (strain FliC11) (Salmonella enterica serotype Enteritidis P125109 | Salmonella enterica serotype Typhimurium 14028s) (UniProt Q06972)
[3] = target: ser. Typhimurium FliC with D3 replaced by D3 from ser. Enteritidis FliC (strain FliC6) (Salmonella enterica serotype Typhimurium 14028s | Salmonella enterica serotype Enteritidis P125109) (UniProt P06179)
[4] = target: ser. Typhimurium FliC with a deletion of D3 (strain FliC3) (Salmonella enterica serotype Typhimurium 14028s) (UniProt P06179)

Substance: Bacteriophage χ (Chi)
- percentage of phage particles adsorbed after ten minutes [1]: 99%
- percentage of phage particles adsorbed after ten minutes [2]: 48%
- percentage of phage particles adsorbed after ten minutes [3]: 67%
- percentage of phage particles adsorbed after ten minutes [4]: 95%
